In patent US20190022259A1, “Use of 99mTc-tilmanocept and related molecular constructs for identifying and diagnosing malignant tumors and for monitoring therapeutic anti-tumor interventions” (Navidea Biopharmaceuticals, Inc., priority 2017, published 2019):
Entries after “also recorded” stand apart in the source; their conditions may differ.

Experiments:
[1] = human, in vivo
Description: A safety follow-up was conducted between 2 to 8 days after the injection.

[2] = rat, in vivo, iv; cited from earlier work
[3] = tested on: TAMs around liver metastases (CD206+ macrophages); assay: SPECT/CT imaging of colorectal cancer patients with synchronous liver metastasis after intravenous injection; assay type: in vivo, human; settings: imaging 4-6 hours after injection

(99m)Tc-diethylenetriaminepentaacetic acid (DTPA)-mannosyl-dextran [^99mTc tilmanocept]
adverse drug reactions [1]: No adverse drug reactions were observed | tolerability of IV injection ([1]; iv): well-tolerated | excretion [2]: excreted into the urine | localization on SPECT/CT image ([3]; first subject, 50 μg/2mCi i.v.): localization of ^99mTc tilmanocept in an area of larger metastasis than was observed with the FDG PET/CT; also recorded: suggests the presence of TAMs around the metastasis | localization on SPECT/CT image ([3]; second subject, 200 μg/2mCi i.v.): Localization around the metastasis was noted
